Measurements taken from PMC4235346.

Key:
Assay in all cases: fluorescence anisotropy
Details in all cases: 10 nM labelled DNA, 10 mM HEPES pH 7.0, 60 mM NaCl, 240 mM KCl, 25 C, anaerobic, 5 mM EDTA for apo or 1.2x (InrS) / 2.2x (ZiaR) metal …
[1] = tested on: ZiaR (Synechocystis PCC 6803)
[2] = tested on: InrS E98A (Synechocystis PCC 6803)
[3] = tested on: InrS E95A (Synechocystis PCC 6803)
[4] = tested on: InrS (Synechocystis PCC 6803)

Row | Substance | Kd ([1]; Zn(II), 2.2 molar excess, K1 (printed as >>)) [nM] | Kd ([1]; Zn(II), 2.2 molar excess, K2 (printed as >>)) [nM] | Kd ([1]; apo, 5 mM EDTA, K1 (first dimer)) [nM] | Kd ([1]; apo, 5 mM EDTA, K2 (second dimer)) [nM] | Kd ([2]; Ni(II), 1.2 molar excess) [nM] | Kd ([2]; apo, 5 mM EDTA) [nM] | Kd ([3]; Ni(II), 1.2 molar excess) [nM] | Kd ([3]; apo, 5 mM EDTA) [nM] | Kd ([4]; Cu(I), 1.2 molar excess) [nM] | Kd ([4]; Cu(II), 1.2 molar excess) [nM] | Kd ([4]; Ni(II), 1.2 molar excess) [nM] | Kd ([4]; Zn(II), 1.2 molar excess) [nM] | Kd ([4]; apo, 5 mM EDTA) [nM]
1 | zia operator-promoter (zia o/p) | > 10000 | > 10000 | 22 | 530 |  |  |  |  |  |  |  |  | 
2 | TCATCAATATCCCCCCTGGGGGCATAGAATAGA (double strand) [nrsDProFA (nrsD operator-promoter)] |  |  |  |  | 1300 | 21 | 1400 | 22 | 3100 | 3600 | 2300 | 980 | 9.4
